Assay results reported in patent CN112457402A (BEIJING NIUAMBO BIOTECHNOLOGY CO LTD, dated 2021).
Positions count from the first letter of the chain named.

T1: Human CEACAM6 Protein, Human, Recombinant (His Tag) (human, UniProt P40199 35-320, biotinylated in Example 6 (Bio-CEACAM6), site not stated)
T1 construct: Bought recombinant antigen; also called CEACAM6抗原; 人CEACAM6抗原
T1 sequence (looked up): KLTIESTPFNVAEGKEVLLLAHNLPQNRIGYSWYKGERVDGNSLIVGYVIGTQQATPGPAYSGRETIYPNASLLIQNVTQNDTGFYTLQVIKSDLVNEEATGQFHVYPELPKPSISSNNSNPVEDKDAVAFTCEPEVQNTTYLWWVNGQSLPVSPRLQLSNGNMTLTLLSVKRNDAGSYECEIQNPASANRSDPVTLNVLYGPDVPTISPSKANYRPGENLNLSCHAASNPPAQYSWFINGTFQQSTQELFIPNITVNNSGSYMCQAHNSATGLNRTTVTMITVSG

B1: 单域抗体NBC4 (VHH)
VHH: HVQLVESGGGLVQAGGSLRLSCAVSGSIFSNDVMGWYRQAPGKQRELVAFITNGGVAHSKDPEKGRFTISRDNGKNTVYLQMNSLKPDDTAVYYCNVRSLVERSREYWGQGTQVTVSS
B2: 单域抗体NBC6 (VHH)
VHH: B1 VHH with H1Q, Q3K, V5E, G54E, E63V
B3: 单域抗体NBC5 (VHH)
VHH: QVKLEESGGGLVQAGGSLRLSCAASGDIDRNDVMHWYRQAPGKQRELVAWIANNGATNYADSVKGRFTISRDNAKNTVYLQMNSLKPEDTAVYYCNVRSLVRRSRDYWGQGTQVTVSS

The binders below were run against T1, Human CEACAM6 Protein, Human, … (assay: phage ELISA, phage-displayed VHH supernatant on coated CEACAM6).

| Binder | binding result |
| --- | --- |
| B1 | binds |
| B2 | binds |
| B3 | binds |
